Laboratory results: patent US20230159610A1 (BIOTEST, published 2023)
Where a chain is given by its changes, count along the chain named.

B1: FcTregV1 (other)
chain: DKTHTCPPCPAPELLGGPSVFLFPPKPKDTLMISRTPEVTCVVVDVSHEDPEVKFNWYVDGVEVHNAKTKPREEQYQSTYRVVSVLTVLHQDWLNGKEYKCKVSNKALPAPIEKTISKAKGTDFTLTISSLQPEDDELTKNQVSLTCLVKGFYPSDIAVEWESNGQPENNYKTTPPVLDSDGSFFLYSKLTVDKSRWQQGNVFSCSVMHEALHNHYTQKSLSLSPGKLNNFYPREAKVQWKVDNALQSGNS
notes: Tregitope carrying polypeptide (TCP) built on the human IgG1 Fc-part: Treg289 in frame A, Treg084 in frame C, Treg134 C-terminal; also called Construct V1
B2: FcTregV13 (other)
chain: DKTHTCPPCPAPELLGGPSVFLFPPKPKDTLMISRTPEVTCVVVDVSHEDPEVKFNWYVDGVEVHNAKTKPREEQYQSTYRVVSVLTVLHQDWLNGKEYKCKVSNKALPAPIEKTISKAKGTDFTLTISSLQPEDDELTKNQVSLTCLVKGFYPSDIAVEWESNGQPENNYKTTPPVLDSDGSFFLYSKLTVDKSRWQQGNVFSCSVMHEALHNHYTQKSLSLSPGKKTLYLQMNSLRAEDTAKH
notes: TCP on the human IgG1 Fc-part: Treg289 in frame A, Treg084 in frame C, Treg088x C-terminal; also called Construct V13
B3: FcTregV14 (other)
chain: B1 chain with Q77N
notes: TCP on the human IgG1 Fc-part: Treg084 in frame C, Treg134 C-terminal; also called Construct V14
B4: FcTregV20 (other)
chain: DKTHTCPPCPAPELLGGPSVFLFPPKPKDTLMISRTPEVTCVVVDVSHEDPEVKFNWYVDGVEVHNAKTKPREEQYNSTYRVVSVLTVLHQDWLNGKEYKCKVSNKALPAPIEKTISKAGGLVQPGGSLRLSCAASGFTFNQVSLTCLVKGFYPSDIAVEWESNGQPENNYKTTPPVLDSDGSKTLYLQMNSLRAEDTAKHVFSCSVMHEALHNHYTQKSLSLSPGK
notes: also called Construct V20
B5: FcTregV23 (other)
chain: DKTHTCPPCPAPELLGGPSVFLFPPKPKDTLMISRTPEVTCVVVDVSHEDPEVKFNWYVDGVEVHNAKTKPREEQYNSTYRVGTDFTLTISSLQPEDEYKCKVSNKALPAPIEKTISKAKGQPREPQVYTLPPSRDELTKNQVSLTCLVKGFYPSDIAVEWESNGQPENNYKTTPPVLDSDGSFFLYSKLTVDKSRWQQGNVFSCSVMHEALHNHYTQKSLSLSPGK
notes: Human IgG1 Fc-part with Treg084 in frame A; also called Construct V23
B6: FcTregV32 (other)
chain: DKTHTCPPCPAPELLGGPSVFLFPPKPKDTLMISRTPEVTCVVVDVSHEDPEVKFNWYVDGVEVHNAKTKPREEQYGGLVQPGGSLRLSCAASGFTFEYKCKVSNKALPAPIEKTISKAKGTDFTLTISSLQPEDRDELTKNQVSLTCLVKGFYPSDIAVEWESNGQPENNYKTTGGLVQPGGSLRLSCAASGFTFRWQQGNVFSCSVMHEALHNHYTQKSLSLSPGKKTLYLQMNSLRAEDTAKH
notes: TCP on the human IgG1 Fc-part: Treg009A in frame A, Treg084 in frame C, Treg009A in frame B, Treg088x C-terminal; also called Construct V32
B7: FcTregV34 (other)
chain: DKTHTCPPCPAPELLGGPSVFLFPPKPKDTLMISRTPEVTCVVVDVSHEDPEVKFNWYVDGVEVHNAKTKPREEQYNSTYRVVSVLTVLHQDWLNGKEYKCKVSNKALPAPIEKTISKAKGQPREPQVYTLPPSRDELTKNQVSLTCLVKGFYPSDIAVEWESNGQPENNYKTTPPEEQYQSTYRVVSVLTVLHQDWQQGNVFSCSVMHEALHNHYTQKSLSLSPGKKTLYLQMNSLRAEDTAKH
notes: TCP on the human IgG1 Fc-part: Treg289 in frame B, Treg088x C-terminal; also called Construct V34

Biological target: the molecule itself
Assay: dimer formation of the expressed construct (self-association), Western blot of transfected cells

Row | Protein | binding result
1 | B1 | binds
2 | B2 | binds
3 | B3 | binds
4 | B4 | binds
5 | B5 | binds
6 | B6 | binds
7 | B7 | binds
